Positions count from the first letter of the chain named.
B1: anti-MAdCAM monoclonal antibody 6.73.2 (antibody, human IgG4, kappa, V domains shown)
VH: EVQLLESGGDLVQPGGSLRLSCAASGFTFRSYAMNWVRQAPGKGLEWVSVISGRGGTTYYADSVKGRFTISRDNSKNTLYLQMNSLRAEDAAVYYCAKIAVAGEGLYYYYGMDVWGQGTTVTVSS
VL: DIQMTQSPSSLSASVGDRVTFTCRASQNITNYLNWYQQKPGKAPKLLIYAASSLPRGVPSRFRGSGSGTDFTLTISSLQPEDFATYYCQQSYSNPPECGFGQGTTLDIKR
B2: anti-MAdCAM monoclonal antibody 1.7.2 (antibody, human IgG2, kappa, V domains shown)
VH: EVQLVESGGGLVKPGGSLRLSCVASGFTFTNAWMIWVRQAPGKGLEWVGRIKRKTDGGTTDYAAPVKGRFTISRDDSKNTLYLQMNSLKTEDTAVYYCTTGGVAEDYWGQGTLVTVSS
VL: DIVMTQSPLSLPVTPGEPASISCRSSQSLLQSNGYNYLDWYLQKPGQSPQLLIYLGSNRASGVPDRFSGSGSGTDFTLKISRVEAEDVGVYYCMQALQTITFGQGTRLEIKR
B3: anti-MAdCAM monoclonal antibody 1.8.2 (antibody, human IgG2, kappa, V domains shown)
VH: B2 VH with A24V
VL: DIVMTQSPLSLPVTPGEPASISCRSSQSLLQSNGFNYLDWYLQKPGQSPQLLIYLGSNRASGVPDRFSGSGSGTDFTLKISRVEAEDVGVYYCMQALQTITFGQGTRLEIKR
B4: anti-MAdCAM monoclonal antibody 7.16.6 (antibody, human IgG2, kappa, V domains shown)
VH: QVQLVQSGAEVKKPGASVKVSCKASGYTFTSYGINWVRQAPGQGLEWMGWISVYSGNTNYAQKVQGRVTMTADTSTSTAYMDLRSLRSDDTAVYYCAREGSSSSGDYYYGMDVWGQGTTVTVSS
VL: DIVMTQTPLSLSVTPGQPASISCKSSQSLLHTDGTTYLYWYLQKPGQPPQLLIYEVSNRFSGVPDRFSGSGSGTDFTLKISRVEAEDVGIYYCMQNIQLPWTFGQGTKVEIKR
B5: anti-MAdCAM monoclonal antibody 6.77.1 (antibody, human IgG4, kappa, V domains shown)
VH: EVQLVESGGGLVKPGGSLRLSCAASGFTFSSYSMNWVRQAPGKGLEWVSSISSSSSYIYYADSVKGRFTISRDNAKNSLYLQMNSLRAEDTAVYYCARDGYSSGWSYYYYYGMDVWGQGTTVTVSS
VL: DIVMTQTPLSLSVTPGQPASISCNSSQSLLLSDGKTYLNWYLQKPGQPPQLLIYEVSNRFSGVPDRFSGSGSGTDFTLKISRVEAEDVGVYSCMQSIQLMCSFGQGTKLEIKR
notes: fully human IgG4 kappa from hybridoma; signal peptide left out; kappa chain stained positive for glycosylation
B6: anti-MAdCAM monoclonal antibody 6.14.2 (antibody, human IgG4, kappa, V domains shown)
VH: EVQLLESGGGLVQPGGSLRLSCAASGLTFNNSAMTWVRQAPGKGLEWVSTTSGSGGTTYYADSVKGRFTISRDSPKNTLYLQMNSLRAEDTAVYYCAARGYSYGTTPYEYWGQGTLVTVSS
VL: DIQMTQSPSSLSASVGDRVTITCRASRSISSYLNWYQQKPGKAPKVLIFFVSSLQSGVPSRFSGSGSGTDFTLTISSLQPEDFATYYCQQNYIPPITFGQGTRLEIRR

Biological target: T1, VCAM (Panvera) (UniProt P19320 25-698, limits assumed)
T1 sequence (looked up): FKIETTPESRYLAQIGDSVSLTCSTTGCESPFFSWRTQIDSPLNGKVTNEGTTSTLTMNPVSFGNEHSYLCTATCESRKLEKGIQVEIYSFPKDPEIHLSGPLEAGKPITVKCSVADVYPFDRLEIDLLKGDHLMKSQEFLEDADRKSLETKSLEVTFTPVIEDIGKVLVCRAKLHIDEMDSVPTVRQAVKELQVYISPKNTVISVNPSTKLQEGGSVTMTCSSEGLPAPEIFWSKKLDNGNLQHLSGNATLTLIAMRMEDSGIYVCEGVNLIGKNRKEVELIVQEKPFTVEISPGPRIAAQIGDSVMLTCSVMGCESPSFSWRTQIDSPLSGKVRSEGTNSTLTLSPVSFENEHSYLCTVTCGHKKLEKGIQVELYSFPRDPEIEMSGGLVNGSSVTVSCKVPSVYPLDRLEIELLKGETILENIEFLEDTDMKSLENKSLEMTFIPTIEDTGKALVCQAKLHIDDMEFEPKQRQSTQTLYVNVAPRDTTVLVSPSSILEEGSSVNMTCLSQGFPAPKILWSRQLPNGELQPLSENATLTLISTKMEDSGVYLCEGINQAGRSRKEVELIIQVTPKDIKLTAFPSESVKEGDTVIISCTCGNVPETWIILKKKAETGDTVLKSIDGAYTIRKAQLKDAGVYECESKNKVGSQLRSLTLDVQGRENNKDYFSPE
Experiment: cell-based or functional assay

Binder	inhibition of adhesion of α4β1+/α5β1+ Jurkat T-cells to coated VCAM [fold]
B1	> 100
B2	> 100
B3	> 100
B4	> 100
B5	> 100
B6	> 100

Biological target: Fibronectin cell binding fragment (110 Kd, Europa Bioproducts Ltd, Cat. No. UBF4215-18) (UniProt P02751-1 722-1635)
Experiment: cell-based or functional assay

Fibronectin cell binding fragment (110 Kd, Europa Bioproducts Ltd, Cat. No. UBF4215-18), sequence (P02751 other isoform, or with tags, fused parts or gaps limits assumed): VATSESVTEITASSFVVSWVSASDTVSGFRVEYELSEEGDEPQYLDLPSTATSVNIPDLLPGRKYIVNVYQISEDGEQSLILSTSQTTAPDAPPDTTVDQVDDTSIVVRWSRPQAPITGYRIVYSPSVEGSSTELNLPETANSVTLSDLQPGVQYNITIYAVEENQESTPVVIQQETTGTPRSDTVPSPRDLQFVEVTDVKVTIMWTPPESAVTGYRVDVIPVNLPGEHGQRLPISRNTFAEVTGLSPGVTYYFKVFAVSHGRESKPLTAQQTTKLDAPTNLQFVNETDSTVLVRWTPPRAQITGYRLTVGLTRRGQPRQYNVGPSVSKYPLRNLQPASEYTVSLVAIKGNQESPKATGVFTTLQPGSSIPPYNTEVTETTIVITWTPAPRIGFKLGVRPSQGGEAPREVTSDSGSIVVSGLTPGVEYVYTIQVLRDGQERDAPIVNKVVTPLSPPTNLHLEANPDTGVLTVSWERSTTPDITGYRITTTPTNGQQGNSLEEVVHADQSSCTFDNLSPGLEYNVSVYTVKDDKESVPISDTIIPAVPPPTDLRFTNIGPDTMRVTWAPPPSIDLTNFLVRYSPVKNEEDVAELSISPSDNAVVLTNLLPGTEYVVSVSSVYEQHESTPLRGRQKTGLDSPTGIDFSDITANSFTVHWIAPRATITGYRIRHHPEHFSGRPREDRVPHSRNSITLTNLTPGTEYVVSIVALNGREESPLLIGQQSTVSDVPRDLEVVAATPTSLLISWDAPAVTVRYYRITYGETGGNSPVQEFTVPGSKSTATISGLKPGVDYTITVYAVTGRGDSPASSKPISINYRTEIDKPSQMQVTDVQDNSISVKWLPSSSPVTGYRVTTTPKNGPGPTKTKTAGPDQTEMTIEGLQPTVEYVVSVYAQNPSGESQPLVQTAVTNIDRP

Binder	inhibition of adhesion of α4β1+/α5β1+ Jurkat T-cells to coated Fibronectin cell binding fragment [fold]
B1	> 100
B2	> 100
B3	> 100
B4	> 100
B5	> 100
B6	> 100

Source: US20070166308A1 (Amgen, published 2007)
